Here are results for two molecules from PMC6090299, “Quantitative Analysis of Interaction Between CADM1 and Its Binding Cell-Surface Proteins Using Surface Plasmon Resonance Imaging” (Frontiers in Cell and Developmental Biology, 2018).

To fix the notation:
T1: CADM4-Fc (human (by the printed RefSeq entry))
T1 sequence (Q8NFZ8 whole entry, looked up): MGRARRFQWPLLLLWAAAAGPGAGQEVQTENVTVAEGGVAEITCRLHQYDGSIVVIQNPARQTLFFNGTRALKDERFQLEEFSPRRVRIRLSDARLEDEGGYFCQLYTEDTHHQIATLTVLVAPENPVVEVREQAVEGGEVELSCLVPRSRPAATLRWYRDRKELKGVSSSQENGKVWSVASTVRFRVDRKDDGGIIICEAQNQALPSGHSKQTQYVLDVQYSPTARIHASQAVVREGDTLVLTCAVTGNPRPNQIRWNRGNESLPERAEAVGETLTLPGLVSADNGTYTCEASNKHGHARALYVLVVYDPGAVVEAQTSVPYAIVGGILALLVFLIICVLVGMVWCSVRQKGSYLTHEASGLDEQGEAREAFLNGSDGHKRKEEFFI

T2: CADM2-Fc (human (by the printed RefSeq entry), UniProt Q8N3J6-1 25-367)
T2 construct: signal peptide in the construct; CADM2 extracellular domain, NP_001161146, 1-367 a.a; Human IgG2-Fc fragment from pFUSE-hIgG2-Fc1; source: FreeStyle 293-F cells, transiently transfected, purified from the supernatant (Protein G Sepharose); not shown: Fc (human IgG2), C-terminal, kept
T2 sequence (looked up): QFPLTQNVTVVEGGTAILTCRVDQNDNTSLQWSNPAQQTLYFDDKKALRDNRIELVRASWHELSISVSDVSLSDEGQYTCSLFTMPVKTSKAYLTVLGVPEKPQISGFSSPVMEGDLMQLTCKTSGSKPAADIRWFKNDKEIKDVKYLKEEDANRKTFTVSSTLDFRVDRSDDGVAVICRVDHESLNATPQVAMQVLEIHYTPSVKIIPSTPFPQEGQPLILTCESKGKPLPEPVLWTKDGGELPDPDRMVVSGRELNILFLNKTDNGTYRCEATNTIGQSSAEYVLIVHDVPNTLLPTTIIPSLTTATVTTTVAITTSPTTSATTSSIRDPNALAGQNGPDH

B1: CADM1-Fc (Fc fusion, human (by the printed RefSeq entry), UniProt Q9BY67-1 45-374, looked up)
chain: QNLFTKDVTVIEGEVATISCQVNKSDDSVIQLLNPNRQTIYFRDFRPLKDSRFQLLNFSSSELKVSLTNVSISDEGRYFCQLYTDPPQESYTTITVLVPPRNLMIDIQKDTAVEGEEIEVNCTAMASKPATTIRWFKGNTELKGKSEVEEWSDMYTVTSQLMLKVHKEDDGVPVICQVEHPAVTGNLQTQRYLEVQYKPQVHIQMTYPLQGLTREGDALELTCEAIGKPQPVMVTWVRVDDEMPQHAVLSGPNLFINNLNKTDNGTYRCEASNIVGKAHSDYMLYVYDPPTTIPPPTTTTTTTTTTTTTILTIITDSRAGEEGSIRAVDH
notes: signal peptide in the construct; CADM1 extracellular domain, NP_055148, 1-374 a.a; Human IgG2-Fc fragment from pFUSE-hIgG2-Fc1; Glycosylated; also called cell adhesion molecule 1 extracellular domain fused with Fc; source: FreeStyle 293-F cells, transiently transfected, purified from the supernatant (Protein G Sepharose); not shown: Fc (human IgG2), C-terminal, kept
B2: CADM3-Fc (Fc fusion, human (by the printed RefSeq entry), UniProt Q8N126-1 25-330, looked up)
chain: NLSQDDSQPWTSDETVVAGGTVVLKCQVKDHEDSSLQWSNPAQQTLYFGEKRALRDNRIQLVTSTPHELSISISNVALADEGEYTCSIFTMPVRTAKSLVTVLGIPQKPIITGYKSSLREKDTATLNCQSSGSKPAARLTWRKGDQELHGEPTRIQEDPNGKTFTVSSSVTFQVTREDDGASIVCSVNHESLKGADRSTSQRIEVLYTPTAMIRPDPPHPREGQKLLLHCEGRGNPVPQQYLWEKEGSVPPLKMTQESALIFPFLNKSDSGTYGCTATSNMGSYKAYYTLNVNDPSPVPSSSSTYH
notes: signal peptide in the construct; CADM3 extracellular domain, NP_001120645, 1-330 a.a; Human IgG2-Fc fragment from pFUSE-hIgG2-Fc1; source: FreeStyle 293-F cells, transiently transfected, purified from the supernatant (Protein G Sepharose); not shown: Fc (human IgG2), C-terminal, kept

In data set [1] the target is T1, CADM4-Fc (human (by the printed RefSeq entry)). Nature of the data set: SPR; SPR imaging (OpenPlex); the 10 IgSF-Fc proteins (7-24 μM) spotted in hexaplicate and immobilised by amine coupling; 2.4 μM CADM1-Fc injected for 4 min; 25°C; PBS with 0.2% BSA and 0.02% Tween20, 50 μL/min; signal of normal human IgG subtracted. (Surface plasmon resonance follows binding to a sensor surface in real time, without labels.)

A further data set addresses T2, CADM2-Fc. The description is as above. The conditions noted are these: both partners purified.
Data set [2] deals with the molecule itself. Described as above.
Data set [3] concerns the molecule itself. Nature of the data set: SPR; SPR imaging (OpenPlex); the 10 IgSF-Fc proteins spotted and immobilised by amine coupling; CADM2-Fc, CADM3-Fc or CADM4-Fc injected as analyte; 25°C; PBS with 0.2% BSA and 0.02% Tween20, 50 μL/min.
The target of the data set “CADM1-Fc” is B1. Nature of the data set: SPR; SPR imaging (OpenPlex); the 10 IgSF-Fc proteins (7-24 μM) spotted in hexaplicate and immobilised by amine coupling; 2.4 μM CADM1-Fc injected for 4 min; 25°C; PBS with 0.2% BSA and 0.02% Tween20, 50 μL/min; signal of normal human IgG subtracted. To be noted: both partners purified.

In data set [1], B1 came in with an equilibrium dissociation constant (Kd) of 193 nM, a koff of 0.019 s⁻¹ and a kon of 99000 M⁻¹ s⁻¹. Besides, in the data set with CADM2-Fc, the affinity, expressed as Kd, was 86.8 nM; the off-rate (koff) amounted to 0.0064 s⁻¹; the on-rate (kon) is 74000 M⁻¹ s⁻¹. In data set [2], this molecule yielded an equilibrium dissociation constant (Kd) of 114 nM, an off-rate (koff) of 0.0073 s⁻¹ and an on-rate constant (kon) of 64000 M⁻¹ s⁻¹.
In the case of B2, the binding result in data set [3] is on record as “binds”. In the data set with CADM1-Fc, the affinity, expressed as Kd, was 80.1 nM; the koff was 0.007 s⁻¹; the kon came out at 84000 M⁻¹ s⁻¹.

The term Kd denotes the constant that tells how readily two partners part at equilibrium. By koff is commonly meant the first-order rate constant of dissociation. In general, kon refers to the second-order rate constant of association. The low end stands for slow association, the high end for fast association.
